T1: human podocalyxin (human, UniProt O00592 23-558)
T1 construct: also called hPodo; hPodocalyxin
T1 sequence: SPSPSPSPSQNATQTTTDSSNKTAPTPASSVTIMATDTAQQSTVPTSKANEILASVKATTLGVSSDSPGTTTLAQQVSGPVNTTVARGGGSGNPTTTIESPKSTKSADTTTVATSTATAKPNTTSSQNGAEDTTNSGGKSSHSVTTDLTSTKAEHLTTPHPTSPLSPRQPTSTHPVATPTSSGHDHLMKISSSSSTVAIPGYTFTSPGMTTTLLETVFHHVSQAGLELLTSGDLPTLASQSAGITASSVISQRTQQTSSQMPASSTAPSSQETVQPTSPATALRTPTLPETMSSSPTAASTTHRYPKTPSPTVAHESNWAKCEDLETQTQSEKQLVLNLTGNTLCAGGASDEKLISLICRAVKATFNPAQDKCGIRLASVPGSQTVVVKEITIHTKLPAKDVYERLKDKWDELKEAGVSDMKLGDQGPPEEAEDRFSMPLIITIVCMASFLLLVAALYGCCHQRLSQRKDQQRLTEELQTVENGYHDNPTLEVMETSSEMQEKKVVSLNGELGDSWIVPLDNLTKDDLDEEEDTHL

B1: huPodo 83 1:1 (humanized anti-podocalyxin antibody 83, version 1) (antibody, V domains shown)
VH: EVQLVESGGGLVQPGGSLRLSCAASGIDLSSYAMGWVRQAPGKGLEWVSFIYASGSIFYASWAKGRFTISRDNSKNTLYLQMNSLRAEDTAVYYCARAGYYFGGNYDLNLWGQGTLVTVSS
VL: DIQMTQSPSSLSASVGDRVTITCQASQSISNYLAWYQQKPGKVPKLLIYRASTLASGVPSRFSGSGSGTDFTLTISSLQPEDVATYYCQQGYVSNNLDNIFGGGTEVVVK
notes: Cloned into pTT5 plasmids with human IgG heavy chain and human Ig kappa constant regions
B2: Rb VH, Vk 1:1 (Podo 83 rabbit VH, human CH1-CH3, human Ck, and humanized Vk) (antibody, V domains shown)
VH: QSLAESGGRLVTPGTPLTLTCTASGIDLSSYAMGWVRQAPGKGLEYIGFIYASGSIFYASWAKGRFTISKTSSTTVDLKMTSLTTEDTATYFCARAGYYFGGNYDLNLWGQGTLVTVSS
VL: B1 VL
notes: Human CH1-CH3 and human Ck
B3: huPodo 83 2:1 (humanized anti-podocalyxin antibody 83, version 2) (antibody, V domains shown)
VH: EVQLVESGGGLVQPGGSLRLSCAASGIDLSSYAMGWVRQAPGKGLEWVSFIYASGSIFYASWAKGRFTISRDNSNTLYLQMNSLRAEDTAVYYCARAGYYFGGNYDLNLWGQGTLVTVSS
VL: B1 VL
notes: as for B1
B4: mouse anti-podocalyxin antibody 3G2 (Ab-2) (antibody, V domains shown)
VH: EVQLQQSGPELVKPGASVKMSCKASGYTFTSYVMHWVKQKPGQGLEWIGYIHPYNDGTNYNEKFKGKATLTSDKSSNTAYMELSSLTSEDSAVYYCARSWDWYFDVWGAGTTVTVSS
VL: QIVLTQSPAIMSASPGEKVTMTCSANSNVRYIHWHQQKSGTSPKRWIYDTSKLSSGVPARFSGSGSGTSYSLTISNMEAEDAATYYCQQWISNPLTFGAGTKLELK
notes: also called 3G2.2; Podo-3G2.2
B5: Rabbit Podo 83 (Parental rabbit antibody) (antibody, V domains shown)
VH: B2 VH
VL: DIVLTQTPASVEVAVGGTVTIKCQASQSISNYLAWYQRKPGQPPRLLIYRASTLASGVSSRFKGSGSGTQFTLTISGVECADAATYYCQQGYVSNNLDNIFGGGTEVVVK
notes: Rabbit constant regions; also called Rb Podo 83 (Rb Constant Region); rabbit Podo-83 (Ab-1)

Legend:
human podocalyxin [1] = target: T1, human podocalyxin; test: FACS, isotype control, hPodo/MDA (MDA-MB-231 cells transfected with human Podocalyxin cDNA)
human podocalyxin [2] = target: T1, human podocalyxin; test: flow cytometry, supernatant Neat, MDA-MB-231 cells
Protocol: (§1) The following antibodies were transiently transfected in 293HEK cells, transfected cells were incubated for 96 hours, antibody containing supernatant was then serially titrated in FACS sample buffer. The following supernatants were used as test samples:
(§2) MDA transient transfectants were established as essentially described above in Example 1. MDA transient transfectants and MDA-MB-231 cells were seeded in 96-well v bottom plates at 75,000 cells/well. Cells were pelleted by centrifugation at 400 g for 3 min. Supernatant was removed. The cell pellets were resuspended in 20 μl of the antibody or control supernatants. The plate was incubated on ice for 1 hour.
(§3) The cells were washed by adding 200 μl FACS buffer to dilute unbound antibody. The plate was centrifuged at 400 g for 3 min to pellet cells. The supernatant was removed and repeated. The cell pellets were resuspended in 25 μl of either goat anti-Hu IgG Fc-Alexa647, goat anti-Mouse IgG Fc-Alexa647, or goat anti-rabbit IgG0Fc-A647 (2 μg/ml) and 7A.A.D (2.5 μg/ml). The plates were incubated on ice for 0.5 hours. The wash procedure was again repeated 2×. The cell pellets were finally resuspended in 75 μl FACS buffer and read on the HTFC™ Screening System (IntelliCyt Corporation) (3 sec sip, 1.5 up time) and analyzed on the HyperView® software (IntelliCyt Corporation).

human podocalyxin [3] = target: T1, human podocalyxin; test: flow cytometry, supernatant Neat, hPodo/MDA-MB-231 transient transfectants
Protocol: as §1, §2, §3

human podocalyxin [4] = target: T1, human podocalyxin; test: flow cytometry, supernatant 1:125, MDA-MB-231 cells
Protocol: as §1, §2, §3

human podocalyxin [5] = target: T1, human podocalyxin; test: flow cytometry titration on 293-6E cells (endogenous podocalyxin), 24 hours at 4 C
Protocol: (§4) The affinities of huPodo 83 1:1 and huPodo 83 2:1 antibodies were determined against endogenously expressed podocalyxin on 293 HEK cells. 293-6E cells were seeded in 96-well v bottom plates at 100,000 cells/well. The cells were pelleted at 400 g for 3 min and the supernatant was discarded. The cells were placed on ice and antibody 1:3 titrations were prepared using ice cold medium. The cells were resuspended in the prepared antibody titrations at 25 μl/well and incubated at 4° C. for either 24 or 48 hours. 200 μl 1% FBS/PGS (FACS buffer) was added to each well. The cells were pelleted at 400 g for 3 min and supernatant removed. The wash was repeated 2 more times. The cells were resuspended in goat anti-human IgGFc-A647 (2 μg/ml)+2.5 μg/ml 7AAD and incubated on ice for 30 min. The cells were washed as above and resuspended in 50 μl FACS buffer. The cells were analyzed by flow cytometry using the HTFC™ Screening System (IntelliCyt Corporation) (3 sec sip, 1.5 sec up) and the C6 cytometer (Becton Dickenson).

human podocalyxin [6] = target: T1, human podocalyxin; test: flow cytometry titration on 293-6E cells (endogenous podocalyxin), 48 hours at 4 C
Protocol: as §4

human podocalyxin [7] = target: T1, human podocalyxin; test: flow cytometry, supernatant 2:15 (so in the source), hPodo/MDA-MB-231 transient transfectants
Protocol: as §1, §2, §3

human podocalyxin [8] = target: T1, human podocalyxin; test: flow cytometry, supernatant 1:5, MDA-MB-231 cells
Protocol: as §1, §2, §3

human podocalyxin [9] = target: T1, human podocalyxin; test: flow cytometry, supernatant 2:15 (so in the source), MDA-MB-231 cells
Protocol: as §1, §2, §3

human podocalyxin [10] = target: T1, human podocalyxin; test: flow cytometry, supernatant 1:5, hPodo/MDA-MB-231 transient transfectants
Protocol: as §1, §2, §3

human podocalyxin [11] = target: T1, human podocalyxin; test: flow cytometry, supernatant 1:125, hPodo/MDA-MB-231 transient transfectants
Protocol: as §1, §2, §3

human podocalyxin [12] = target: T1, human podocalyxin; test: kinetic exclusion assay (KinExA 3200), MDA-MB-231 cells
Protocol: The concentration dependence of free anti-podocalyxin antibody as a function of MDA-MB231 cell number was determined using a KinExA 3200 instrument (Sapidyne Instruments). Briefly, MDA-MB-231 cells, which express endogenous podocalyxin, were titrated 1:2 from 10×10⁶ cells/mL down 12 steps, and incubated with a fixed concentration of anti-podocalyxin antibodies. MDA-MB231 cells and cell bound antibodies were then isolated by centrifugation. Supernatant containing free, unbound antibody was then transferred to a new tube. The supernatant containing free unbound antibody was passed over the column containing PMMA beads coated with a goat anti-IgG-Fc capture antibody. The amount of free antibody captured on the PMMA beads was then measured using a goat anti-IgG-Fc-A647. This process was repeated for every cell concentration. For each sample assayed a new column of PMMA beads with the goat anti-IgG-Fc capture antibody was packed. The concentration of free antibody over the entire 12 step dilution series was then used to determine the antibody Kd's using the standard Kd template in the KineExA Pro Software (Sapidyne Instruments).

Row | Molecule | FACS signal (name not given) (human podocalyxin [1]) | flow cytometry fluorescence (name not given) (human podocalyxin [2]) | flow cytometry fluorescence (name not given) (human podocalyxin [3]) | flow cytometry fluorescence (name not given) (human podocalyxin [4]) | IC50 (human podocalyxin [5]) | IC50 (human podocalyxin [6]) | flow cytometry fluorescence (name not given) (human podocalyxin [7]) | flow cytometry fluorescence (name not given) (human podocalyxin [8]) | flow cytometry fluorescence (name not given) (human podocalyxin [9]) | flow cytometry fluorescence (name not given) (human podocalyxin [10]) | flow cytometry fluorescence (name not given) (human podocalyxin [11]) | Kd (human podocalyxin [12])
1 | hlgG1 (antibody) | 544 |  |  |  |  |  |  |  |  |  |  | 
2 | hlgG2 (antibody) | 533 |  |  |  |  |  |  |  |  |  |  | 
3 | B1 |  | 125000 | 124000 | 39400 | 0.0331 µg/mL | 0.0355 µg/mL | 157000 | 112000 | 91500 | 128000 | 61600 | 0.26 nM
4 | B2 |  | 130000 | 137000 | 47700 |  |  | 76400 | 115000 | 94800 | 124000 | 74500 | 
5 | B3 |  | 123000 | 139000 | 22300 | 0.0519 µg/mL | 0.052 µg/mL | 79400 | 105000 | 67200 | 108000 | 37700 | 
6 | B4 |  |  |  |  |  |  |  |  |  |  |  | 3.34 nM
7 | B5 |  | 179000 | 90800 | 15500 |  |  | 89700 | 129000 | 53700 | 139000 | 24100 | 

Source: US20190367606A1 (CENTRE FOR DRUG RESEARCH AND DEVELOPMENT, published 2019)
